Source: US10544202B2, “Mutant proteins and methods for their production” (Medical Research Council, priority 2013, dated 2020)
“And” between values parts separate entries of the source, which are not always exact repeats. Equal entries are not always repeated.

Assays:
SAH6 [1] = molecular target: T1, SAH6 (Rattus norvegicus, UniProt P31652, A505L/G278A/L99A); conditions: SAH6 vs wild-type SERT
SAH7 = molecular target: T2, SAH7 (Rattus norvegicus, UniProt P31652, A505L/L405A/P499A); test: [125I]-RTI55 saturation binding on membranes, SAH7; conditions: read-out: apparent KD for [125I]-RTI55 binding
T2 construct: expressed in transfected cells; host or cells: T-REx-293 (HEK293) cells, membranes

SAH6 [2] = molecular target: T1, SAH6; test: [125I]-RTI55 saturation binding on membranes, SAH6; parameters: expressed in transfected cells; host or cells: T-REx-293 (HEK293) cells, membranes; conditions: read-out: apparent KD for [125I]-RTI55 binding
[3] = Thermostability assay of [125I]-RTI55-bound detergent-solubilised SERT (apparent Tm)
T-REx-293 cells [4] = test: Expression level of SERT-mCherry mutants transiently transfected into T-REx-293 cells; type: cell-based; conditions: relative to wild-type SERT = 100%; transient transfection
Method: (FIG. 3A) Comparison of [^125I]-RTI55 bound to 554 detergent-solubilised Ala/Leu mutants at either 4° C. or after heating at 30° C. for 30 minutes. The data relating to thermostability (the heated samples) have been normalized to the amount of wild-type SERT remaining after heating (40%; horizontal dashed line). The expression level of wild-type SERT is indicated by the vertical dashed line and the grey column (0-200 dpm) represents non-specific binding of [^125I]-RTI55 to the parental T-REx-HEK293 cell line (no SERT). Each data point represents binding to the equivalent of 50,000 cells measured in duplicate (estimated error is ±20% in dpm). […] (FIG. 3C) Amino acid sequence of SERT (SEQ ID NO: 1) showing the positions of the thermostabilising mutations (hatched) that consistently gave >1° C. increase in Tm compared to wild-type SERT; residues in bold and hatched were used to stabilize either SAH6 and/or SAH7. N-linked glycosylation sites are indicated by the hexagons, a putative disulphide bond is shown as a grey line and the N-terminal and C-terminal fusion partners are shown (c-Myc tag and the fluorescent reporter protein mCherry) are indicated.

T-REx-293 cells [5] = test: Cell surface expression by confocal microscopy; type: cell-based; parameters: key: *: low expression; **: as wild-type SERT; ***: higher expression than wild-type SERT; conditions: estimation by eye of fluorescence upon confocal microscopy
[6] = test system: tetracycline-induced stable T-REx cell lines; test: [3H]-5HT uptake assay; type: cell-based; conditions: cell lines expressing cell surface-expressed mutant-GFP

With `CN(C)CCCN1c2ccccc2CCc2ccccc21` [imipramine] the “decrease in affinity relative to wild-type SERT” value (SAH6 [1]) was 6.7 fold.

With `COC(=O)[C@H]1C(c2ccc(I)cc2)C[C@@H]2CC[C@H]1N2C` (stereo partly drawn) [[^125I]-RTI55, RTI55 (β-CIT)] the Kd (SAH7) was 1.3 nM and 1.2 nM and 1.5 nM and the Kd (SAH6 [2]) was 3.8 nM and 3.7 nM.

For ibogaine, the “decrease in affinity relative to wild-type SERT” value (SAH6 [1]) was 4.5 fold.

B1: wild-type SERT: cocaine-sensitive rat serotonin transporter, parent protein (protein, listed as Rattus sp.)
chain: METTPLNSQKVLSECKDREDCQENGVLQKGVPTTADRAEPSQISNGYSAVPSTSAGDEASHSIPAATTTLVAEIRQGERETWGKKMDFLLSVIGYAVDLGNIWRFPYICYQNGGGAFLLPYTIMAIFGGIPLFYMELALGQYHRNGCISIWRKICPIFKGIGYAICIIAFYIASYYNTIIAWALYYLISSLTDRLPWTSCTNSWNTGNCTNYFAQDNITWTLHSTSPAEEFYLRHVLQIHQSKGLQDLGTISWQLTLCIVLIFTVIYFSIWKGVKTSGKVVWVTATFPYIVLSVLLVRGATLPGAWRGVVFYLKPNWQKLLETGVWVDAAAQIFFSLGPGFGVLLAFASYNKFNNNCYQDALVTSVVNCMTSFVSGFVIFTVLGYMAEMRNEDVSEVAKDAGPSLLFITYAEAIANMPASTFFAIIFFLMLITLGLDSTFAGLEGVITAVLDEFPHIWAKRREWFVLIVVITCVLGSLLTLTSGGAYVVTLLEEYATGPAVLTVALIEAVAVSWFYGITQFCSDVKEMLGFSPGWFWRICWVAISPLFLLFIICSFLMSPPQLRLFQYNYPHWSIVLGYCIGMSSVICIPTYIIYRLISTPGTLKERIIKSITPETPTEIPCGDIRMNAV
For B1, the “amount of transporter remaining after heating” value ([3]; 30° C. for 30 minutes) was 40%, the “Apparent Tm in 0.1% DDM” value ([3]; 125I-RTI55-bound detergent-solubilised SERT, apparent Tm ±1° C.) was 28 °C and the “apparent Tm” value ([3]; [125I]-RTI55-bound, DDM-solubilised, 30 min heating) was 28 °C. The “transporter remaining functional after heating” value ([3]; single-temperature assay, 28° C. for 30 minutes) was “approximately 40%”.

B2: A505L: rat SERT single mutant A505L (protein)
chain: METTPLNSQKVLSECKDREDCQENGVLQKGVPTTADRAEPSQISNGYSAVPSTSAGDEASHSIPAATTTLVAEIRQGERETWGKKMDFLLSVIGYAVDLGNIWRFPYICYQNGGGAFLLPYTIMAIFGGIPLFYMELALGQYHRNGCISIWRKICPIFKGIGYAICIIAFYIASYYNTIIAWALYYLISSLTDRLPWTSCTNSWNTGNCTNYFAQDNITWTLHSTSPAEEFYLRHVLQIHQSKGLQDLGTISWQLTLCIVLIFTVIYFSIWKGVKTSGKVVWVTATFPYIVLSVLLVRGATLPGAWRGVVFYLKPNWQKLLETGVWVDAAAQIFFSLGPGFGVLLAFASYNKFNNNCYQDALVTSVVNCMTSFVSGFVIFTVLGYMAEMRNEDVSEVAKDAGPSLLFITYAEAIANMPASTFFAIIFFLMLITLGLDSTFAGLEGVITAVLDEFPHIWAKRREWFVLIVVITCVLGSLLTLTSGGAYVVTLLEEYATGPAVLTVLLIEAVAVSWFYGITQFCSDVKEMLGFSPGWFWRICWVAISPLFLLFIICSFLMSPPQLRLFQYNYPHWSIVLGYCIGMSSVICIPTYIIYRLISTPGTLKERIIKSITPETPTEIPCGDIRMNAV
For B2, the “Expression (%) SERT = 100%” value (T-REx-293 cells [4]) was 175% and the Cell surface expression (T-REx-293 cells [5]) was “***”.

B3: SAH6: thermostabilised rat SERT triple mutant A505L+L99A+G278A (protein, UniProt P31652 1-630, looked up, variant A505L L99A G278A)
Sodium-dependent serotonin …: METTPLNSQKVLSECKDREDCQENGVLQKGVPTTADRAEPSQISNGYSAVPSTSAGDEASHSIPAATTTLVAEIRQGERETWGKKMDFLLSVIGYAVDAGNIWRFPYICYQNGGGAFLLPYTIMAIFGGIPLFYMELALGQYHRNGCISIWRKICPIFKGIGYAICIIAFYIASYYNTIIAWALYYLISSLTDRLPWTSCTNSWNTGNCTNYFAQDNITWTLHSTSPAEEFYLRHVLQIHQSKGLQDLGTISWQLTLCIVLIFTVIYFSIWKGVKTSAKVVWVTATFPYIVLSVLLVRGATLPGAWRGVVFYLKPNWQKLLETGVWVDAAAQIFFSLGPGFGVLLAFASYNKFNNNCYQDALVTSVVNCMTSFVSGFVIFTVLGYMAEMRNEDVSEVAKDAGPSLLFITYAEAIANMPASTFFAIIFFLMLITLGLDSTFAGLEGVITAVLDEFPHIWAKRREWFVLIVVITCVLGSLLTLTSGGAYVVTLLEEYATGPAVLTVLLIEAVAVSWFYGITQFCSDVKEMLGFSPGWFWRICWVAISPLFLLFIICSFLMSPPQLRLFQYNYPHWSIVLGYCIGMSSVICIPTYIIYRLISTPGTLKERIIKSITPETPTEIPCGDIRMNAV
With B3 the “transport of [3H]-5HT into the cell” value [6] was “no significant transport”.

B4: SAH7: thermostabilised rat SERT triple mutant A505L+P499A+L405A (protein, UniProt P31652 1-630, looked up, variant A505L P499A L405A)
Sodium-dependent serotonin …: METTPLNSQKVLSECKDREDCQENGVLQKGVPTTADRAEPSQISNGYSAVPSTSAGDEASHSIPAATTTLVAEIRQGERETWGKKMDFLLSVIGYAVDLGNIWRFPYICYQNGGGAFLLPYTIMAIFGGIPLFYMELALGQYHRNGCISIWRKICPIFKGIGYAICIIAFYIASYYNTIIAWALYYLISSLTDRLPWTSCTNSWNTGNCTNYFAQDNITWTLHSTSPAEEFYLRHVLQIHQSKGLQDLGTISWQLTLCIVLIFTVIYFSIWKGVKTSGKVVWVTATFPYIVLSVLLVRGATLPGAWRGVVFYLKPNWQKLLETGVWVDAAAQIFFSLGPGFGVLLAFASYNKFNNNCYQDALVTSVVNCMTSFVSGFVIFTVLGYMAEMRNEDVSEVAKDAGPSALFITYAEAIANMPASTFFAIIFFLMLITLGLDSTFAGLEGVITAVLDEFPHIWAKRREWFVLIVVITCVLGSLLTLTSGGAYVVTLLEEYATGAAVLTVLLIEAVAVSWFYGITQFCSDVKEMLGFSPGWFWRICWVAISPLFLLFIICSFLMSPPQLRLFQYNYPHWSIVLGYCIGMSSVICIPTYIIYRLISTPGTLKERIIKSITPETPTEIPCGDIRMNAV
For B4, the “transport of [3H]-5HT into the cell” value [6] was “no significant transport”.

B5: G113A: rat SERT single mutant G113A (protein)
chain: METTPLNSQKVLSECKDREDCQENGVLQKGVPTTADRAEPSQISNGYSAVPSTSAGDEASHSIPAATTTLVAEIRQGERETWGKKMDFLLSVIGYAVDLGNIWRFPYICYQNAGGAFLLPYTIMAIFGGIPLFYMELALGQYHRNGCISIWRKICPIFKGIGYAICIIAFYIASYYNTIIAWALYYLISSLTDRLPWTSCTNSWNTGNCTNYFAQDNITWTLHSTSPAEEFYLRHVLQIHQSKGLQDLGTISWQLTLCIVLIFTVIYFSIWKGVKTSGKVVWVTATFPYIVLSVLLVRGATLPGAWRGVVFYLKPNWQKLLETGVWVDAAAQIFFSLGPGFGVLLAFASYNKFNNNCYQDALVTSVVNCMTSFVSGFVIFTVLGYMAEMRNEDVSEVAKDAGPSLLFITYAEAIANMPASTFFAIIFFLMLITLGLDSTFAGLEGVITAVLDEFPHIWAKRREWFVLIVVITCVLGSLLTLTSGGAYVVTLLEEYATGPAVLTVALIEAVAVSWFYGITQFCSDVKEMLGFSPGWFWRICWVAISPLFLLFIICSFLMSPPQLRLFQYNYPHWSIVLGYCIGMSSVICIPTYIIYRLISTPGTLKERIIKSITPETPTEIPCGDIRMNAV
For B5, the “Expression (%) SERT = 100%” value (T-REx-293 cells [4]) was 42% and the Cell surface expression (T-REx-293 cells [5]) was “**”.
